Reference: paper PMC9478400, “Identification and characterization of a novel hydroxylamine oxidase, DnfA, that catalyzes the oxidation of hydroxylamine to N2” (The Journal of Biological Chemistry, 2022)
One block for each molecule: values may come before it.

Tests used:
DnfA [1] = biological target: T1, DnfA (Alcaligenes ammonioxydans, UniProt A0ABX8SXK4); assay: isothermal titration calorimetry; format: binding; details: 25 °C; hydroxylamine injected into enzyme
T1 construct: gene FE795_13025; full-length, 6xHis-tagged, pET-21a, E. coli BL21(DE3); dimer by gel filtration; diiron (residues Glu88, Glu123, His126, Glu182, His209, Glu213, His216)
T1 sequence (A0ABX8SXK4 1-317): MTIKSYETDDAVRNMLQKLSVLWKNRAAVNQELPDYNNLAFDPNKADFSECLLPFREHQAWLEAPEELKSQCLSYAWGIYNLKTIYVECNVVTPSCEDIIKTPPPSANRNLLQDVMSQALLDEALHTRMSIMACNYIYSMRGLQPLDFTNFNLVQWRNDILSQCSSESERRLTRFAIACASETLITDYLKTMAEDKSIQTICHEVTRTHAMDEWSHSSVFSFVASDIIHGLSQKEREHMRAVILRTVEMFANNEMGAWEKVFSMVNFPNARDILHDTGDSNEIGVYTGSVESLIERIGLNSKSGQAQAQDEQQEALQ

DnfA [2] = biological target: T1, DnfA; assay: differential scanning fluorimetry; format: binding; details: 10 mM compound, 100 μg/ml DnfA, 20 mM Tris-HCl pH 8.0, SYPRO Orange
[3] = biological target: DnfA hydroxylamine oxidase of Alcaligenes ammonioxydans HO-1 (Alcaligenes ammonioxydans HO-1); assay: SEC; gel filtration of native DnfA on Superdex 200 Increase 10/300 GL; mobile phase 20 mM Tris-HCl, 150 mM NaCl, pH 8.0; UV absorbance at 280 nm
[4] = substrate: NO; assay: Michaelis-Menten, nonlinear regression, N2-forming hydroxylamine oxidation; format: biochemical, Alcaligenes ammonioxydans; details: 10 μM DnfA, 100 μM FAD, 1 mM NADH, atmospheric O2, 15 to 400 μM NH2OH
From the text: Michaelis-Menten, nonlinear regression, N2-forming hydroxylamine oxidation on DnfA | the Michaelis–Menten constant (Km) for hydroxylamine

Molecule: NO [hydroxylamine]
isothermal titration calorimetry (DnfA [1]): none of them interacted with ammonia, but DnfA bound to hydroxylamine
differential scanning fluorimetry (DnfA [2]): DSF test demonstrated also that DnfA bound hydroxylamine

stoichiometry N [3]: 2
Molecule: DnfA hydroxylamine oxidase of Alcaligenes ammonioxydans HO-1 (enzyme)

B1: DnfA (Alcaligenes ammonioxydans) (protein)
chain: MTIKSYETDDAVRNMLQKLSVLWKNRAAVNQELPDYNNLAFDPNKADFSECLLPFREHQAWLEAPEELKSQCLSYAWGIYNLKTIYVECNVVTPSCEDIIKTPPPSANRNLLQDVMSQALLDEALHTRMSIMACNYIYSMRGLQPLDFTNFNLVQWRNDILSQCSSESERRLTRFAIACASETLITDYLKTMAEDKSIQTICHEVTRTHAMDEWSHSSVFSFVASDIIHGLSQKEREHMRAVILRTVEMFANNEMGAWEKVFSMVNFPNARDILHDTGDSNEIGVYTGSVESLIERIGLNSKSGQAQAQDEQQEALQ
notes: full-length, 6xHis-tagged, pET-21a, E. coli BL21(DE3); dimer by gel filtration; diiron (residues Glu88, Glu123, His126, Glu182, His209, Glu213, His216)
Km [4]: 92.9 ± 3.0 µM
kcat [4]: 0.028 ± 0.001 s⁻¹
